{
  "source": "paper PMC4645341",
  "about": "(Journal of Virology, 2015)",
  "molecules": {"B1": {"name": "4E10 WDWD Fab (Fab, V domains shown)", "VH": "VQLVQSGAEVKRPGSSVTVSCKASGGSFSTYALSWVRQAPGRGLEWMGGVIPLLTITNYAPRFQGRITITADRSTSTAYLELNSLRPEDTAVYYCAREGTTGDGDLGKPIGAFAHWGQGTLVTVSS", "VL": "EIVLTQSPGTQSLSPGERATLSCRASQSVGNNKLAWYQQRPGQAPRLLIYGASSRPSGVADRFSGSGSGTDFTLTISRLEPEDFAVYYCQQYGQSLSTFGQGTKVEVK"}},
  "key": {"[1]": {"target": "MPER-TM1 (HIV-1 (strain not stated))", "assay": "ELISA"}, "4E10 WT Fab": {"target": "4E10 WT Fab", "assay": "SPR"}, "[2]": {"target": "Recombinant gp41 (r-gp41; HIV-1MN isolate) (HIV-1 isolate MN, UniProt P05877)", "sequence (P05877 whole entry, looked up)": "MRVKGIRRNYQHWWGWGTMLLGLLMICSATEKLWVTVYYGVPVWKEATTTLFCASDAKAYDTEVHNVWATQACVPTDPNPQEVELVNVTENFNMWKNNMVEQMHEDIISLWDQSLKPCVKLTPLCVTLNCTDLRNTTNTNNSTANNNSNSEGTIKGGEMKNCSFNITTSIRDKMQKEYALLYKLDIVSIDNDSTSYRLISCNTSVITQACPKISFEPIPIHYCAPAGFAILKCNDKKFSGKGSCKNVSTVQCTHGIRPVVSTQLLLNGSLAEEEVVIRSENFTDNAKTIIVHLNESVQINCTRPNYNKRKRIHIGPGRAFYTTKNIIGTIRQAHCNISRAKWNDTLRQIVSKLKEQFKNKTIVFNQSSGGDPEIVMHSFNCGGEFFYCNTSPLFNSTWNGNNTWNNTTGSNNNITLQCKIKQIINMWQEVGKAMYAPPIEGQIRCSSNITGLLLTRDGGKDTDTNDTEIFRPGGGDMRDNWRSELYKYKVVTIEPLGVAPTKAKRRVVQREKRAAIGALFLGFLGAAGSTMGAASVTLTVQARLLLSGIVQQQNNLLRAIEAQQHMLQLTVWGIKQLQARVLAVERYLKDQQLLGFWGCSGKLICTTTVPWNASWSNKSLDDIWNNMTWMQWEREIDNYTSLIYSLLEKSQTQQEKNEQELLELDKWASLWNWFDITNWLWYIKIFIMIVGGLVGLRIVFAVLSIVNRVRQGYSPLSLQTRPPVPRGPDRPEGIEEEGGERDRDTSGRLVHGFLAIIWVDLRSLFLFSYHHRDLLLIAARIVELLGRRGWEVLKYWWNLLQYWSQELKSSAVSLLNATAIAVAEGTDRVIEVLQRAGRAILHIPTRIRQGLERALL", "assay": "ELISA"}},
  "note": "Where no end group is shown, it is not given here.",
  "data": [
    {"molecule": "4E10 IgG1 MAb (antibody)", "values": [
      {"measurement": "EC50", "setting": "[1]", "result": 0.1, "unit": "nM"}
    ]},
    {"molecule": "4E10 WT Fab", "values": [
      {"measurement": "EC50", "setting": "[1]", "result": 1, "unit": "nM"}
    ]},
    {"molecule": "NWFDITNWLWYIRRRR-NH2", "note": "[4E10ep variant (…-RRR)]", "values": [
      {"measurement": "Kd", "setting": "4E10 WT Fab", "result": 21, "unit": "nM"},
      {"measurement": "dH (van't Hoff)", "setting": "4E10 WT Fab", "result": -11.5, "unit": "kcal/mol"},
      {"measurement": "koff", "setting": "4E10 WT Fab", "result": 0.0011, "unit": "s⁻¹"}
    ]},
    {"molecule": "B1", "values": [
      {"measurement": "binding result", "setting": "[2]", "result": "binds"}
    ]}
  ]
}
